Target: T1, DHX36 (UniProt Q9H2U1)
T1 sequence (Q9H2U1 whole entry, looked up): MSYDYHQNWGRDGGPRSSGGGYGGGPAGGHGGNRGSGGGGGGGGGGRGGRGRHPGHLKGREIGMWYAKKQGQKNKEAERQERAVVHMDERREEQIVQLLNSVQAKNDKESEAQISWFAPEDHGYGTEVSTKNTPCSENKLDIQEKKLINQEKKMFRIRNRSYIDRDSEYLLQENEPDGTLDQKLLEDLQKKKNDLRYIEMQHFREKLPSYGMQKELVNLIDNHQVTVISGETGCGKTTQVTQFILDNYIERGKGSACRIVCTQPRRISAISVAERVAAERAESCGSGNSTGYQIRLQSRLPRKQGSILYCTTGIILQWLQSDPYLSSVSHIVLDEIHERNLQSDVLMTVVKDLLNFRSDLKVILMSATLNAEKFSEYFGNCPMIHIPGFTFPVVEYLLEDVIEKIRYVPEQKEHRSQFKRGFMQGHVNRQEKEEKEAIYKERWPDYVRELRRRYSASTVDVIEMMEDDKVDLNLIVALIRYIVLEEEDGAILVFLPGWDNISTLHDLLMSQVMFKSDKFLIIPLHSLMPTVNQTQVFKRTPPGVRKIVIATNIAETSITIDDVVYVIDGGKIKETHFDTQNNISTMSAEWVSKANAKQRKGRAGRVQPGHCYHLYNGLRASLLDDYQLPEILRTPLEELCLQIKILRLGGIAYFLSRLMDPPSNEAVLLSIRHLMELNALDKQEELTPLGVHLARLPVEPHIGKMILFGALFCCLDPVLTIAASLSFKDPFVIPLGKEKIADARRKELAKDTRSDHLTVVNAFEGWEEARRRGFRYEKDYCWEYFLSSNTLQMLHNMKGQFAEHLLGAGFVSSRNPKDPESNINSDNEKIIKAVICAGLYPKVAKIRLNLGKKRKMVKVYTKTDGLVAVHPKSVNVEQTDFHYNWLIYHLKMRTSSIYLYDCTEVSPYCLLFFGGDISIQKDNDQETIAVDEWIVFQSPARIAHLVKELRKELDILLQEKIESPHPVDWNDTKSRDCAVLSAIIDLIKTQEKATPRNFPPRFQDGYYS
Test: ELISA
Details: ELISA performed as in Zyner et al. (ref 43); buffer, salt, pH and temperature not given in the material

UGUGGGAGGGGCGGGUCUGGGUGC [NRAS G4]
Kd: 0.9 nM

From PMC8611094
